For this experiment, the target named is T1, wildtype SARM1 (endogenous, in wildtype mouse dorsal root ganglion neurons) (mouse) (UniProt Q6PDS3).
T1 sequence (looked up): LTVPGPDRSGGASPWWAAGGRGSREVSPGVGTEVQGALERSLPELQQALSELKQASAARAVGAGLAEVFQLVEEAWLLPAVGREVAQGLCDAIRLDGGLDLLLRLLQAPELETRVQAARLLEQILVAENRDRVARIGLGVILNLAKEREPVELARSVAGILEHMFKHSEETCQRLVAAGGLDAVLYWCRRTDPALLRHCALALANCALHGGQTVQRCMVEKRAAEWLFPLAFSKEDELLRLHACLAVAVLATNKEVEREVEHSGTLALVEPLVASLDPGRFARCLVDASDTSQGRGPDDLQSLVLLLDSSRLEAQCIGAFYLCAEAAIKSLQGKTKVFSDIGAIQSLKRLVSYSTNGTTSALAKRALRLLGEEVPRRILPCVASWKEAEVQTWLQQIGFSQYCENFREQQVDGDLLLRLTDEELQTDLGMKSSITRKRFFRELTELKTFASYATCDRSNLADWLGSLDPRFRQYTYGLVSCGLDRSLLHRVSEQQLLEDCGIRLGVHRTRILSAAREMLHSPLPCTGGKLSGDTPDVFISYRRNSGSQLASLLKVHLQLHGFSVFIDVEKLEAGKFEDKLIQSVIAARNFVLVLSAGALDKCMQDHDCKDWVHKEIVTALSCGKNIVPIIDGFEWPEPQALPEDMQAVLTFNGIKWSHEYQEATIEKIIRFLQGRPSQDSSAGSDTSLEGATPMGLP
Description: cell-based or functional assay.

Residue numbers refer to the chain shown, from its start. Names and notes keep the numbering of the source.

B1: SARM1-deltaTIR (enzyme, not shown: large carriers)
chain: MLAVPGPDGGGGTGPWWAAGGRGPREVSPGAGTEVQDALERALPELQQALSALKQAGGARAVGAGLAEVFQLVEEAWLLPAVGREVAQGLCDAIRLDGGLDLLLRLLQAPELETRVQAARLLEQILVAENRDRVARIGLGVILNLAKEREPVELARSVAGILEHMFKHSEETCQRLVAAGGLDAVLYWCRRTDPALLRHCALALGNCALHGGQAVQRRMVEKRAAEWLFPLAFSKEDELLRLHACLAVAVLATNKEVEREVERSGTLALVEPLVASLDPGRFARCLVDASDTSQGRGPDDLQRLVPLLDSNRLEAQCIGAFYLCAEAAIKSLQGKTKVFSDIGAIQSLKRLVSYSTNGTKSALAKRALRLLGEEVPRPILPSVPSWKEAEVQTWLQQIGFSKYCESFREQQVDGDLLLRLTEEELQTDLGMKSGITRKRFFRELTELKTFANYSTCDRSNLADWLGSLDPRFRQYTYGLVSCGLDRSLLHRVSEQQLLEDCGIHLGVHRARILTAAREMLHSPLPCTGGKPSGDATT
The molecule B1 had an axon degeneration (degeneration index) after axotomy of wildtype DRG neurons of 36 h.

B2: SARM1-K597E (enzyme, not shown: large carriers)
chain: LAVPGPDGGGGTGPWWAAGGRGPREVSPGAGTEVQDALERALPELQQALSALKQAGGARAVGAGLAEVFQLVEEAWLLPAVGREVAQGLCDAIRLDGGLDLLLRLLQAPELETRVQAARLLEQILVAENRDRVARIGLGVILNLAKEREPVELARSVAGILEHMFKHSEETCQRLVAAGGLDAVLYWCRRTDPALLRHCALALGNCALHGGQAVQRRMVEKRAAEWLFPLAFSKEDELLRLHACLAVAVLATNKEVEREVERSGTLALVEPLVASLDPGRFARCLVDASDTSQGRGPDDLQRLVPLLDSNRLEAQCIGAFYLCAEAAIKSLQGKTKVFSDIGAIQSLKRLVSYSTNGTKSALAKRALRLLGEEVPRPILPSVPSWKEAEVQTWLQQIGFSKYCESFREQQVDGDLLLRLTEEELQTDLGMKSGITRKRFFRELTELKTFANYSTCDRSNLADWLGSLDPRFRQYTYGLVSCGLDRSLLHRVSEQQLLEDCGIHLGVHRARILTAAREMLHSPLPCTGGKPSGDTPDVFISYRRNSGSQLASLLKVHLQLHGFSVFIDVEELEAGKFEDKLIQSVMGARNFVLVLSPGALDKCMQDHDCKDWVHKEIVTALSCGKNIVPIIDGFEWPEPQVLPEDMQAVLTFNGIKWSHEYQEATIEKIIRFLQGRSSRDSSAGSDTSLEGAAPMGPTATT
On to B2, for which the axon degeneration (degeneration index) after axotomy of wildtype DRG neurons came out at 36 h.

B3: SARM1 D627K (enzyme, not shown: large carriers)
chain: B2 chain with E570K, D600K
B3 showed an axon degeneration after axotomy of 24 h.

B4: SARM1-E642A (enzyme, not shown: large carriers)
chain: B2 chain with E570K, E615A
Take B4: the mitochondrial membrane potential (TMRM fluorescence) in severed axons of wildtype DRG neurons was 24 h.

B5: SARM1-H685A (enzyme, not shown: large carriers)
chain: B2 chain with E570K, H658A
As to B5, the axon degeneration (degeneration index) after axotomy of wildtype DRG neurons stood at 72 h.

B6: SARM1-K193R/E642A (enzyme, not shown: large carriers)
chain: B2 chain with K166R, E570K, E615A
As for B6, the axon degeneration after 40 nM vincristine, wildtype DRG neurons was greater than 120 h.

B7: SARM1 K628D (enzyme, not shown: large carriers)
chain: B2 chain with E570K, K601D
B7 yielded an axon degeneration after axotomy of 24 h.

B8: SARM1-K193R (enzyme, not shown: large carriers)
chain: B2 chain with K166R, E570K
As for B8, the axon degeneration (degeneration index) after axotomy of wildtype DRG neurons came out at 72 h.

B9: SARM1-H685A/E642A (enzyme, not shown: large carriers)
chain: B2 chain with E570K, E615A, H658A
B9: the axon degeneration after 40 nM vincristine, wildtype DRG neurons was greater than 120 h.

B10: SARM1-K193R/H685A (enzyme, not shown: large carriers)
chain: B2 chain with K166R, E570K, H658A
With B10, the axon degeneration after axotomy of wildtype DRG neurons was greater than 120 h.

B11: SARM1-H685Y (enzyme, not shown: large carriers)
chain: B2 chain with E570K, H658Y
Consider B11, for which the axon degeneration (degeneration index) after axotomy of wildtype DRG neurons amounted to 72 h.

B12: SARM1 C629S (enzyme, not shown: large carriers)
chain: B2 chain with E570K, C602S
With B12, the axon degeneration after axotomy was 24 h.

B13: SARM1-K193R/H194A/H685A (SARM1-compound dominant negative) (enzyme, not shown: large carriers)
chain: B2 chain with K166R, H167A, E570K, H658A
In turn, B13 showed an axon degeneration (degeneration index) and TMRM-positive mitochondria after axotomy of wildtype DRG neurons greater than 96 h; an axon degeneration after 40 nM vincristine, wildtype DRG neurons greater than 120 h; an axon degeneration and TMRM-positive mitochondria after 40 nM vincristine, wildtype DRG neurons greater than 96 h.

The record behind these values is US20210187069A1.
